Measurements taken from publication PMC10140047.

Target: T1, TwinStrep-BICD2 WT (mouse), Q921C5
T1 chain: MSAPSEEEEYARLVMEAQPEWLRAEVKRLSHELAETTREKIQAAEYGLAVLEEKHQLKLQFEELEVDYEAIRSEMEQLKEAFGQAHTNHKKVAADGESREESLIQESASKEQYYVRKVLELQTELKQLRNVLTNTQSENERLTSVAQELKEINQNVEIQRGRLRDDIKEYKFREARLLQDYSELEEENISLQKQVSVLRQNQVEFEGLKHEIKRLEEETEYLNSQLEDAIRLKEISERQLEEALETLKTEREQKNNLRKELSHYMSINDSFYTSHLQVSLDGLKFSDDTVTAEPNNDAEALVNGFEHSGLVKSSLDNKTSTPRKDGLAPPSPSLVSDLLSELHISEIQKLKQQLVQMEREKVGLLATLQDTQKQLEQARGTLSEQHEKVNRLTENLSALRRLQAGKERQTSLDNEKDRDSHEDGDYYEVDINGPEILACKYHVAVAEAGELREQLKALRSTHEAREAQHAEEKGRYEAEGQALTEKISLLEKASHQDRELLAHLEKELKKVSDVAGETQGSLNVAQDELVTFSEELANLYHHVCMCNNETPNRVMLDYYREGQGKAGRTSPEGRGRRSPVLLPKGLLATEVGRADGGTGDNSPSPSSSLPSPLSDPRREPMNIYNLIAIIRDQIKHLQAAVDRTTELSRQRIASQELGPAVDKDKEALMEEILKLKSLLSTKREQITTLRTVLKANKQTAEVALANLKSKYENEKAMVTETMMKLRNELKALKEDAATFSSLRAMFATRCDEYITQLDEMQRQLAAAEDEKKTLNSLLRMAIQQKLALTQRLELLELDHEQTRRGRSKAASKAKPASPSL
Assay: SEC-MALS; purified TwinStrep-BICD2 WT and S102D; predicted MW of ~190 kDa
Conditions: remark: other sources report otherwise

B1: TwinStrep-BICD2 WT, Q921C5 1-820 (natural protein)
chain: T1 chain
B1 gave a stoichiometry N of 2.
